Assays:
MdJa2-His [1] = target: T1, MdJa2-His (Malus domestica? (red-fleshed apple), UniProt Q208U7 1-224); assay: EMSA; EMSA (LightShift kit): 2.5% glycerol, 5 mM MgCl2, 10 mM EDTA, 50 mM KCl; room temperature, 30 min; pH not stated; details: protein: recombinant, tags: His (pET32a), chain copies: 2, blunt
MdJa2-His [2] = target: T1, MdJa2-His; assay: competition; 50-200x excess vs labeled N3; EMSA (LightShift kit): 2.5% glycerol, 5 mM MgCl2, 10 mM EDTA, 50 mM KCl; room temperature, 30 min; pH not stated; details: protein: recombinant; tags: His (pET32a); chain copies: 2; blunt
MdJa2-His [3] = target: T1, MdJa2-His; assay: competition; 50-200x excess vs labeled N5; EMSA (LightShift kit): 2.5% glycerol, 5 mM MgCl2, 10 mM EDTA, 50 mM KCl; room temperature, 30 min; pH not stated; details: protein: recombinant; tags: His (pET32a); chain copies: 2; blunt

T1 sequence (Q208U7 entry or part of it): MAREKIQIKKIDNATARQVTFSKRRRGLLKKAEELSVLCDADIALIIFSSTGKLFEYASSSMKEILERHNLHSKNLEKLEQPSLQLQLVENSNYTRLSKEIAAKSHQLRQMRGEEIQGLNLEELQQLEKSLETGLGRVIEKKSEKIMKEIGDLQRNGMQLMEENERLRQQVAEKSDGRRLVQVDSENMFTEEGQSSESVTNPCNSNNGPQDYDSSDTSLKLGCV

Binder	binding result (MdJa2-His [1]; label: biotin (labeled probe))	also measured
ANS promoter probe (dsDNA) DNA 1: GCAATTAAGTTTGTAAACCAATAATTAACTTAATTTTGAT DNA 2: ATCAAAATTAAGTTAATTATTGGTTTACAAACTTAATTGC	binds	–
ANS-mutant probe (dsDNA) DNA 1: GCAACCAAGTTTGTAAACCAATAATTAACTTAATTTTGAT DNA 2: ATCAAAATTAAGTTAATTATTGGTTTACAAACTTGGTTGC	–	binding result (MdJa2-His [1]): no binding
MYB9 promoter probe (dsDNA) DNA 1: TAAATAGTAATAATATCATTTTTGTACATTCAGATAA DNA 2: TTATCTGAATGTACAAAAATGATATTATTACTATTTA	binds	–
MYB9-mutant probe (dsDNA) DNA 1: TAAATAGTAATAATATCACCTTTGTACATTCAGATAA DNA 2: TTATCTGAATGTACAAAGGTGATATTATTACTATTTA	–	binding result (MdJa2-His [2]): no binding
MYB12-mutant probe (printed NYB12-mutant) (dsDNA) DNA 1: AAATTCAGGAACCATTGCTACAACCAAGCATAACACAGT DNA 2: ACTGTGTTATGCTTGGTTGTAGCAATGGTTCCTGAATTT	–	binding result (MdJa2-His [3]): no binding
MYB12 promoter probe (dsDNA) DNA 1: AAATTCAGGAACCATTGCTACAATTAAGCATAACACAGT DNA 2: ACTGTGTTATGCTTAATTGTAGCAATGGTTCCTGAATTT	binds	–

— publication PMC9125324, “MdJa2 Participates in the Brassinosteroid Signaling Pathway to Regulate the Synthesis of Anthocyanin and Proanthocyanidin in Red-Fleshed Apple”
